{"source": "patent US20230405078", "proteins": {"B1": {"name": "recombinant cathepsin S (1183-CY-010, R&D Systems) (protein)", "chain": "QLHKDPTLDHHWHLWKKTYGKQYKEKNEEAVRRLIWEKNLKFVMLHNLEHSMGMHSYDLGMNHLGDMTSEEVMSLMSSLRVPSQWQRNITYKSNPNRILPDSVDWREKGCVTEVKYQGSCGACWAFSAVGALEAQLKLKTGKLVSLSAQNLVDCSTEKYGNKGCNGGFMTTAFQYIIDNKGIDSDASYPYKAMDQKCQYDSKYRAATCSKYTELPYGREDVLKEAVANKGPVSVGVDARHPSFFLYRSGVYYEPSCTQNVNHGVLVVGYGDLNGKEYWLVKNSWGHNFGEEGYIRMARNKGNHCGIASFPSYPEI"}}, "target": "T1, elafin (AS-61641, Anaspec)", "T1 chain": "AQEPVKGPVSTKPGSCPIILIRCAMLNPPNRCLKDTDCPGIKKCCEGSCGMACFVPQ"}
{"protein": "B1", "values": [{"measurement": "ERK1/2 phosphorylation and ProCOL1A2 expression in colonic fibroblasts", "value": "reversed elafin-mediated inhibition of ERK1/2 phosphorylation and ProCOL1A2 expression in colonic fibroblasts"}]}
